Source: patent US20240425837A1 (Novo Nordisk, published 2024)
No end group written: not given here.

How the values were obtained:
Assay in all cases: ELISA, biotinylated 12-mer peptide on streptavidin, 2 ug/mL FLAG-tagged VHH, anti-FLAG-HRP
[1] = target: T1, FX activation peptide 12-mer WKPYDAADLDPT (SEQ ID NO:710) (human)
T1 peptide: WKPYDAADLDPT-biotin
Method: (§1) To determine whether the binding epitope of the anti-FX VHH polypeptide designated “cmpd #1” are located inside the activation peptide (AP) of human FX (SEQ ID NO:2), an ELISA assay was setup. 41 unique 12-mer peptide fragments spanning the 52 residues of the activation peptide with one amino acid spacing were immobilized in microtiter plate wells followed by incubation with the VHH polypeptide to be tested, and detection of bound ligand was performed by addition of a secondary HRP-labelled antibody.
(§2) The peptides were C-terminally conjugated to biotin and 50 μL of 1 μg/mL peptide solution was used for immobilization in discrete wells of the microtiter plate which was pre-coated with 1 μg/mL streptavidin. Each well was washed with washing buffer (10 mM Tris, 150 mM NaCl, 2.5 mM CaCl₂, 0.05% Tween 20, pH 8.60) followed by addition of 50 μL of 2 μg/mL FLAG-tagged anti-FX VHH polypeptide or IgG antibody to be tested. After 1 hour non-bound VHH polypeptide was washed off using washing buffer.
(§3) Bound anti-FX activation peptide ligand was detected by first binding a HRP-labelled secondary antibody (for FLAG-tagged VHH polypeptide: Anti-FLAG mAb M2-Peroxidase (HRP) (Sigma Aldrich, US) for 1 hour, and then adding 100 μL TMB-1 ELISA substrate (Kem-En-Tec Diagnostics, Denmark).

[2] = target: T2, FX activation peptide 12-mer TENPFDLLDFNQ (SEQ ID NO:721) (human)
T2 peptide: TENPFDLLDFNQ-biotin
Method: as §1, §2, §3

[3] = target: T3, FX activation peptide 12-mer QTQPERGDNNLT (SEQ ID NO:732) (human)
T3 peptide: QTQPERGDNNLT-biotin
Method: as §1, §2, §3

[4] = target: T4, FX activation peptide 12-mer NQTQPERGDNNL (SEQ ID NO:731) (human)
T4 peptide: NQTQPERGDNNL-biotin
Method: as §1, §2, §3

[5] = target: T5, FX activation peptide 12-mer PFDLLDFNQTQP (SEQ ID NO:724) (human)
T5 peptide: PFDLLDFNQTQP-biotin
Method: as §1, §2, §3

[6] = target: T6, FX activation peptide 12-mer TQPERGDNNLTR (SEQ ID NO:733) (human)
T6 peptide: TQPERGDNNLTR-biotin
Method: as §1, §2, §3

[7] = target: T7, FX activation peptide 12-mer ENPFDLLDFNQT (SEQ ID NO:722) (human)
T7 peptide: ENPFDLLDFNQT-biotin
Method: as §1, §2, §3

[8] = target: T8, FX activation peptide 12-mer NPFDLLDFNQTQ (SEQ ID NO:723) (human)
T8 peptide: NPFDLLDFNQTQ-biotin
Method: as §1, §2, §3

[9] = target: T9, FX activation peptide 12-mer GEAPDSITWKPY (SEQ ID NO:702) (human)
T9 peptide: GEAPDSITWKPY-biotin
Method: as §1, §2, §3

[10] = target: T10, FX activation peptide 12-mer TSSSGEAPDSIT (SEQ ID NO:698) (human)
T10 peptide: TSSSGEAPDSIT-biotin
Method: as §1, §2, §3

[11] = target: T11, FX activation peptide 12-mer EAPDSITWKPYD (SEQ ID NO:703) (human)
T11 peptide: EAPDSITWKPYD-biotin
Method: as §1, §2, §3

[12] = target: T12, FX activation peptide 12-mer FDLLDFNQTQPE (SEQ ID NO:725) (human)
T12 peptide: FDLLDFNQTQPE-biotin
Method: as §1, §2, §3

[13] = target: T13, FX activation peptide 12-mer QATSSSGEAPDS (SEQ ID NO:696) (human)
T13 peptide: QATSSSGEAPDS-biotin
Method: as §1, §2, §3

[14] = target: T14, FX activation peptide 12-mer LDFNQTQPERGD (SEQ ID NO:728) (human)
T14 peptide: LDFNQTQPERGD-biotin
Method: as §1, §2, §3

[15] = target: T15, FX activation peptide 12-mer AADLDPTENPFD (SEQ ID NO:715) (human)
T15 peptide: AADLDPTENPFD-biotin
Method: as §1, §2, §3

[16] = target: T16, FX activation peptide 12-mer VAQATSSSGEAP (SEQ ID NO:694) (human)
T16 peptide: VAQATSSSGEAP-biotin
Method: as §1, §2, §3

[17] = target: T17, FX activation peptide 12-mer PDSITWKPYDAA (SEQ ID NO:705) (human)
T17 peptide: PDSITWKPYDAA-biotin
Method: as §1, §2, §3

[18] = target: T18, FX activation peptide 12-mer FNQTQPERGDNN (SEQ ID NO:730) (human)
T18 peptide: FNQTQPERGDNN-biotin
Method: as §1, §2, §3

B1: Cmpd #1 (monovalent anti-FX VHH polypeptide, VHH-1.1) (VHH)
VHH: EVQLVESGGGLVQPGGSLRLSCAASGSIGAFDAMGWYRQAPGKQRELVAGIMVSRGNTNYTDSVKGRFTISRDNAKNTVYLQMNSLKPEDTAVYYCKAVKRPGPGYLEVWGQGTLVTVSS
notes: no protractor; FLAG-tagged in the peptide ELISA
B1 was tested, and the “ELISA signal normalized relative to the background signal” value [1] was 0.89 fold of background, the “ELISA signal normalized relative to the background signal” value [2] was 4.84 fold of background and the “ELISA signal normalized relative to the background signal” value [3] was 0.88 fold of background. The “ELISA signal normalized relative to the background signal” value [4] was 0.92 fold of background, the “ELISA signal normalized relative to the background signal” value [5] was 4.95 fold of background and the “ELISA signal normalized relative to the background signal” value [6] was 1.05 fold of background. For the same binder, the “ELISA signal normalized relative to the background signal” value [7] was 4 fold of background, the “ELISA signal normalized relative to the background signal” value [8] was 3.13 fold of background and the “ELISA signal normalized relative to the background signal” value [9] was 0.93 fold of background. The “ELISA signal normalized relative to the background signal” value [10] was 0.77 fold of background, the “ELISA signal normalized relative to the background signal” value [11] was 0.97 fold of background and the “ELISA signal normalized relative to the background signal” value [12] was 4.38 fold of background. For the same binder, the “ELISA signal normalized relative to the background signal” value [13] was 0.96 fold of background, the “ELISA signal normalized relative to the background signal” value [14] was 0.97 fold of background and the “ELISA signal normalized relative to the background signal” value [15] was 0.88 fold of background. The “ELISA signal normalized relative to the background signal” value [16] was 1.02 fold of background, the “ELISA signal normalized relative to the background signal” value [17] was 1.05 fold of background and the “ELISA signal normalized relative to the background signal” value [18] was 1 fold of background.
